Experimental findings from publication PMC7511232 (eLife, 2020) are described below.

The target in one series is HA-fused Atg1(593-830) (S. pombe, UniProt Q9Y7T4 593-830). The series can be described thus: pull-down.
The series “SEC” deals with the molecule itself. The series can be described thus: SEC. For orientation: In gel filtration, larger molecules generally elute earlier.

HA-fused Atg1(593-830), sequence (Q9Y7T4 593-830): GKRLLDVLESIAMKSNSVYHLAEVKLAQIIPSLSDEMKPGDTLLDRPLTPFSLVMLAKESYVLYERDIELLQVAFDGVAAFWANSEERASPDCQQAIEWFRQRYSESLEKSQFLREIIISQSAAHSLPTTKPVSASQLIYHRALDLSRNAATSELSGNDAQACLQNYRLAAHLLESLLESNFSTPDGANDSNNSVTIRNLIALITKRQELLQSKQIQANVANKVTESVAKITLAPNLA

In the case of SSQPFYRVSPSIVPLNVIRKLTN (domain or fragment, S. pombe, UniProt O14261 522-544, looked up) [GST-fused Atg11(522-544)], in the series with HA-fused Atg1(593-830), the binding result is reported as “binds”.

B1: MBP-Atg11(522-583) (domain or fragment, S. pombe, UniProt O14261 522-583, looked up)
chain: SSQPFYRVSPSIVPLNVIRKLTNRKTSFTDSHILRLQDEVNQLRNELDLVNKRNEDLLIELQ
With B1, the stoichiometry N – broadly, a count of units in the complex or per binding partner – in the series “SEC” worked out at 2.
